We go through 1 molecule from paper PMC11107207, “Utility of protein–protein binding surfaces composed of anti-parallel alpha-helices and beta-sheets selected by phage display” (The Journal of Biological Chemistry, 2024).

The target of this assay is T1, APCDD1 bait fused to the C terminus of Fc (mouse, UniProt Q3U128 27-492).
T1 construct: mouse APCDD1, entire extracellular domain, fused to the C terminus of Fc; secreted with the mouse FZD8 signal peptide; also called Fc-bait; source: HEK293T, transiently transfected, serum-free conditioned medium; captured on proteinG; not shown: Fc (human IgG1), N-terminal, kept
As to the kind of experiment: SPR; Biacore, single-cycle kinetics/affinity, five-point dose response; bait-Fc on a proteinG chip; CC4-MBP in the mobile phase; done at Cayman Chemical. The note with it: both partners purified.

Where only a bound is given, the exact number is not on record here.

T1 sequence (Q3U128 27-492): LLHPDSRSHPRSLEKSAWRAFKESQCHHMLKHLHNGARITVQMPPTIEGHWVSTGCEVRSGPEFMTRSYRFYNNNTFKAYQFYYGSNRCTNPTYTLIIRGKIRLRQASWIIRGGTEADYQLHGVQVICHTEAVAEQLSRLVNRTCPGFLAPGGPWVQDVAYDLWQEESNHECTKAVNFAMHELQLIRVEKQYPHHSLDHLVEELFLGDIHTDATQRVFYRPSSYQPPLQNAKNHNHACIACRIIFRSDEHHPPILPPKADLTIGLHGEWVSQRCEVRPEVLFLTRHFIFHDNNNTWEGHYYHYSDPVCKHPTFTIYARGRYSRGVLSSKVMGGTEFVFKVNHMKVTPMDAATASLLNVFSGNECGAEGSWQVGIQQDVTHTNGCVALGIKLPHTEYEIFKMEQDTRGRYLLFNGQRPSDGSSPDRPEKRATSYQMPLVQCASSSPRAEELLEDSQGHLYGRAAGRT

B1: WT CC4-MBP (domain or fragment, mouse)
chain: PMRNPTDSLYCCDRAEDHACQNACKRILMSKKTEMEIVDGLIEGCKTQPLPQDPLWQCFLESSQS
notes: mouse RECK, CC domain 4 (CC4), a 4-helix bundle of 65 amino acids; also called RECK(CC4); source: E. coli SHuffle, purified (Ni-NTA)
B1: the dissociation constant Kd is greater than 50 µM.
